# Reference: article PMC8175468, “3D architecture and structural flexibility revealed in the subfamily of large glutamate dehydrogenases by a mycobacterial enzyme” (Communications Biology, 2021)
# B1: Se-Met mL-GDH180 (seleno-methionine derivative of the mycobacterial L-GDH180 from Mycobacterium smegmatis MC2-155) (enzyme, UniProt A0R1C2 1-1594, looked up)
# chain: MIRRLSVAFLSTYRGPQADAPGVTSTGPLAVAAHDDLVSDDLVAAHYRLASMRAPGETKAAVYPGDAGSGAALQIVTDQAPMLVDSVTVLLHRHGIAYTAIMNPVFRVRRGLDGELLDVRPAAEAAPGDGADECWILVPITAAADGEALTEATRLVPGILAEARQIGLDSGAMIAALHGLANDLATDLEGHFPNAERKEVAALLRWLADGHFVLLGYQQCVVGDGNAEVDPASRLGVLRLRNDVLPPLTDSDDLLVLAQATMPSYLRYGAYPYIVVVRESPGASRVIEHRFVGLFTVAAMNANALEIPLISRRVEEALAMAHRDPSHPGQLLRDIIQTIPRPELFALSSKQLLEMALAVVDLGSRRRTLLFLRADHLAHFVSCLVYLPRDRYTTAVRLEMQDILVRELGGAGIDYSARVSESPWAVVHFTVRLPEGTAADSVDTSLENESRIQDLLTEATRNWGDRMISAAAAASISPAALEHYAHAFPEDYKQAFAPQDAIADISLIEALQDDSVKLVLADTAEDRVWKLTWYLGGHSASLSELLPMLQSMGVVVLEERPFTLRRTDGLPVWIYQFKISPHPSIPHAPDAEAQRDTAQRFADAVTAIWHGRVEIDRFNELVMRAGLTWQQVVVLRAYAKYLRQAGFPYSQSHIESVLNENPHTTRSLIDLFEALFDPSQETDGRRDAQGAAAAVAADIDALVSLDTDRVLRAFANLIEATLRTNYFVARPDSARARNVLAFKLNPLVIKELPLPRPKFEIFVYSPRVEGVHLRFGFVARGGLRWSDRREDFRTEILGLVKAQAVKNAVIVPVGAKGGFVVKRPPTLTGDAAADREATRAEGVECYRLFISGLLDVTDNVDKATGAVVTPPEVVRRDGEDAYLVVAADKGTATFSDIANEVAKSYGFWLGDAFASGGSIGYDHKAMGITAKGAWESVKRHFREMGVDTQTQDFTVVGIGDMSGDVFGNGMLLSKHIRLVAAFDHRDIFLDPNPDAGRSWDERKRLFDLPRSSWADYDKSLISEGGGVYSRQQKSIPISPQVRTALGLDADVEELTPPALIKAILKAPVDLLWNGGIGTYIKAETEADADVGDRANDQIRVCGNQVRAKVIGEGGNLGVTALGRIEFDLAGGRINTDALDNSAGVDCSDHEVNIKILIDSAVTAGKVTPEERTELLLSMTDEVGELVLADNRDQNDLMGTSRANAASLLSVHARMIKDLVDNRGLNRELEALPSEKEIRRRADAGIGLTSPELATLMAHVKLALKDDVLASDLPDQEVFASRLPYYFPTRLREELHGEIRSHQLRREIITTMLVNDLVDTAGISYAYRITEDVGVGPVDAVRSYVAINAIFGIGDVWRRIRAAGDAGVPTSVTDRMTLDLRRLVDRAGRWLLNYRPQPLAVGAEINRFGAKVAALTPRMSEWLRGDDKAIVSKEAGDFASHGVPEDLAYHIATGLYQYSLLDVIDIADIVDREPDEVADTYFALMDHLGADALLTAVSRLSRDDRWHSLARLAIRDDIYGSLRALCFDVLAVGEPDENGEEKIAEWETTNSSRVTRARRTLTEIYKDGEQDLATLSVAARQIRSMTRTSGTGTTG
# modifications: seleno-methionine in place of methionine
# notes: No cleavage of the His6 tag is described; Crystallised from a solution that also held an equimolar amount of GarA from M. tuberculosis, which was not found in the crystal; also called seleno-methionine (Se-Met) derivative of mL-GDH180
# B2: native mL-GDH180 (mycobacterial large glutamate dehydrogenase of 180 kDa subunits from Mycobacterium smegmatis MC2-155) (enzyme, UniProt A0R1C2 1-1594, looked up)
# chain: B1 chain
# notes: NAD-dependent large glutamate dehydrogenase (L-GDH180), Mycobacterium smegmatis MC2-155, MSMEG_4699, Uniprot A0R1C2; No cleavage of the His6 tag is described; Only residues 500-1588 are modelled in the cryo-EM coordinates (7A1D); also called L-GDH180 from M. smegmatis; MSMEG_4699; source: E. coli BL21(DE3) grown in LB broth, purified (HisTrap HP, Superose 6 size-exclusion chromatography)
# Key:
# [1] = target: the molecule itself; experiment: crystal structure; Se-Met mL-GDH180 at 16.5 mg/ml with equimolar GarA; 100 mM sodium cacodylate pH 5.8, 12% v/v glycerol, 1.25 M (NH4)2SO4, 4 °C; two monomers in the asymmetric unit, tetramer by crystallographic symmetry; 6.27 Å
# [2] = target: the molecule itself; experiment: cryo-EM structure; 0.3 mg/ml native mL-GDH180 on Quantifoil R2/2 grids; single-particle, D2 symmetry; open (4.19 Å) and closed (6.6 Å) tetramers
Protein,stoichiometry N [1],stoichiometry N [2]
B1,4,
B2,,4
